Measured values: patent US20140120095A1 (Boehringer Ingelheim, published 2014)

Columns and labels:
recombinant human DLL4 [1] = biological target: T1, recombinant human DLL4 (human, UniProt Q9NR61 25-522); experiment: binding ELISA, coated rhDLL4
T1 construct: also called rhDLL4; hDLL4
Method: In order to determine cross-reactivity to mouse DII4 a binding ELISA is performed. […] Wells are blocked with a casein solution (1% in PBS). VHHs are applied as dilution series and binding is detected using a mouse anti-myc (Roche) and an anti-mouse-AP conjugate (Sigma, St Louis, Mo., USA) (FIG. 7 A-H). As reference, binding to human DII4 is measured.

recombinant human DLL4 [2] = biological target: T1, recombinant human DLL4; experiment: SPR Biacore T100, hDLL4 on chip, VHH/Fab injected
Method: Kinetic analysis to determine the affinity of the DII4-VHH interaction is performed by Surface Plasmon Resonance (SPR) on a Biacore T100 instrument. […] Purified VHHs or Fab fragment are injected for 2 minutes at different concentrations (between 10 and 300 nM) and allowed to dissociate for 20 min at a flow rate of 45 μl/min. Between sample injections, the surfaces are regenerated with 10 mM glycine pH1.5 and 100 mM HCl. HBS-N (Hepes buffer pH7.4) is used as running buffer. If possible, data are evaluated by fitting a 1:1 interaction model (Langmuir binding) onto the binding curves. The affinity constant KD is calculated from resulting association and dissociation rate constants (kₐ) and […].

human Jagged-1 = biological target: T2, human Jagged-1 (human, UniProt P78504 34-1067, limits assumed); experiment: binding ELISA on coated recombinant human Jagged-1, OD 405 nm
T2 construct: also called hJagged-1; hJAG1
Procedure, shortened: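 Plates coated overnight at 4° C with 1 μg/mL ligand, blocked with 1% casein in PBS. VHH dilution series applied; bound VHH detected via mouse anti-myc then anti-mouse-AP conjugate.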

[3] = biological target: human DLL4 overexpressed on cells (human, UniProt Q9NR61 27-685); experiment: cell-based or functional assay
human Jagged-1 (Alexis) = biological target: T3, human Jagged-1 (Alexis) (human, UniProt P78504 34-1067, limits assumed); experiment: binding ELISA on coated human Jagged-1 (Example 5.8, Example 7), OD 405 nm
T3 construct: also called hJag-1; hJAG1

human DLL1 (Alexis) = biological target: T4, human DLL1 (Alexis) (human, UniProt O00548 18-545, limits assumed); experiment: binding ELISA on coated human DLL1 (Example 5.8, Example 7), OD 450 nm
T4 construct: also called hDLL1
T4 sequence (looked up): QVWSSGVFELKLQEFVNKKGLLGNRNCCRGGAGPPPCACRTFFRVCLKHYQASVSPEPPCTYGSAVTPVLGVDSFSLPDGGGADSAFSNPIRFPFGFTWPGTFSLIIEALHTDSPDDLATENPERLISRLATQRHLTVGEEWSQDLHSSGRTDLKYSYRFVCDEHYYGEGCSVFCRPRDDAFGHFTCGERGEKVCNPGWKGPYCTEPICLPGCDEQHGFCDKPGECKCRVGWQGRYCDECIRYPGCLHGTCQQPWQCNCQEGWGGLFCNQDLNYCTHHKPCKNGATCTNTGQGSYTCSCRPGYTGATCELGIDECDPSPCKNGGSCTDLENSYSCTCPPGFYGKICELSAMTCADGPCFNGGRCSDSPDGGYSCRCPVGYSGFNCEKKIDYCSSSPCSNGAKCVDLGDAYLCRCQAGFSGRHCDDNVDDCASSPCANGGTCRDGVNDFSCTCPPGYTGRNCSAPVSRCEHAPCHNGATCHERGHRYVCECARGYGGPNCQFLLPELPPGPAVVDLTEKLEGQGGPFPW

[4] = biological target: T5, recombinant human DLL4 (C-terminally His-tagged extracellular domain, R&D Systems) (human, UniProt Q9NR61 25-522, biotinylated in the competition ELISA); experiment: ProteOn off-rate screen, periplasmic extract, coated human DLL4
T5 construct: also called rhDLL4; hDLL4
Method: (§1) In a first cycle, amino acid substitutions are introduced randomly in both framework (FW) and complementary determining regions (CDR) using the error-prone PCR method. […] After a polish step, PCR products are inserted via unique restriction sites into a vector designed to facilitate phage display of the VHH library. Consecutive rounds of in-solution selections are performed using decreasing concentrations of biotinylated recombinant human DLL4 (biot-rhDLL4) and trypsin elutions. Affinity-driven selections in a third round using cold rhDLL4 (at least 100× excess over biot-rhDLL4) are also performed. No selections on murine DLL4 are included as (conservation of) cross-reactivity is assessed at the screening level. Individual mutants are produced as recombinant protein using an expression vector derived from pUC119, which contains the LacZ promoter, a resistance gene for ampicillin, a multiple cloning site and an ompA leader sequence (pAX50). E. coliTG1 cells are transformed with the expression vector library and plated on agar plates (LB+Amp+2% glucose). Single colonies are picked from the agar plates and grown in 1 mL 96-deep-well plates. VHH expression is induced by adding IPTG (1 mM). Periplasmic extracts (in a volume of ˜80 uL) are prepared according to standard methods and screened for binding to recombinant human and mouse DII4 in a ProteOn (BioRad, Hercules, Calif., USA) off-rate assay. In brief, a GLC ProteOn Sensor chip is coated with recombinant human DII4 on the “ligand channels” L2 and L4 (with L1/L3 as reference channel), while “ligand channels” […] is coated with mouse DII4. Periplasmic extract of affinity-matured clones is diluted 1/10 and injected across the “analyte channels” A1-A6. An average off-rate is calculated of the wild type clones present in the plate and served as a reference to calculate off-rate improvements.

[5] = biological target: T6, recombinant mouse DLL4 (C-terminally His-tagged extracellular domain, R&D Systems) (mouse, UniProt Q9JI71 27-532); experiment: ProteOn off-rate screen, periplasmic extract, coated mouse DLL4
T6 construct: extracellular domain; also called rmDLL4; mDLL4
Method: as §1

[6] = biological target: T6, recombinant mouse DLL4 (C-terminally …); experiment: binding ELISA on coated recombinant mouse DLL4 (Example 5.8, Example 7), OD 450 nm

T6 sequence (Q9JI71 27-532): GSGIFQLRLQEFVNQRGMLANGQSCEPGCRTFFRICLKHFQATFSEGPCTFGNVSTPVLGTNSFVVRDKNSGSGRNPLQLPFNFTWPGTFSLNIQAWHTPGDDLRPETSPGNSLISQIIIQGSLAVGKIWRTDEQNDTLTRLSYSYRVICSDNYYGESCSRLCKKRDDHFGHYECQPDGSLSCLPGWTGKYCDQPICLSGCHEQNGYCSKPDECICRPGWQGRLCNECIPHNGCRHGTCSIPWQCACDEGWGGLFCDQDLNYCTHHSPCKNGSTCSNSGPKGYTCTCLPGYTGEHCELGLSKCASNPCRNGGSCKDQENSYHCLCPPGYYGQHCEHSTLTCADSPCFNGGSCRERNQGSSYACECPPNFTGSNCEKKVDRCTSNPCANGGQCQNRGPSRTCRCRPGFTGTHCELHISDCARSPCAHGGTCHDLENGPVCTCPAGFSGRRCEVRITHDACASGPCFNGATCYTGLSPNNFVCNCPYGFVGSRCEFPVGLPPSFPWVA

Row | Binder | binding result (human Jagged-1 (Alexis)) | binding result (human DLL1 (Alexis)) | fold (off-rate vs DLLBII101G08) [4] [fold] | koff [4] [s⁻¹] | fold (off-rate vs DLLBII101G08) [5] [fold] | koff [5] [s⁻¹] | other results
1 | DLLBII115A05 (VHH, also called 115A5; DLLBII115A5) VHH: EVQLVESGGGLVQPGGSLRLSCAASGFTFGSYDMSWVRRSPGKGPEWVSSINSGGGSTYYADFVKGRFTISRDNAKNTLYLQMNSLKPEDTAVYYCAADRYIRARQGDYWGAYEYDYWGQGTQVTVSS |  |  |  |  |  |  | EC50 (recombinant human DLL4 [1]): 5 nM; Kd (recombinant human DLL4 [2]): 25 nM; koff (recombinant human DLL4 [2]): 0.0039 s⁻¹; kon (recombinant human DLL4 [2]): 150000 M⁻¹ s⁻¹; binding result (human Jagged-1): no binding (tested: 5e-7 M); IC50, DLL4/Notch1 reporter assay [3]: 1740 nM
2 | DLLBII133G05 (VHH, not shown: small tags and cut ends) VHH: EVQLVESGGGLVQPGGSLRLSCAASGFTFGSYDMSWVRRSPGKGPEWVSAINSGGGSTYYTDYVKGRFTISRDNAKNTLYLQMNSLKPEDTAVYYCAADRYIWARQGEYWGAYAYDYWGQGTQVTVSS | no binding (tested: log[M] -6.1 (about 8e-7 M)) |  |  |  |  |  | 
3 | DLLBII015 (VHH, not shown: small tags and cut ends) VHH: EVQLVESGGGLVQPGGSLRLSCAASGFTIGSYDMSWVRRSPGKGPEWVSAINSGGGSTYYADYVKGRFTISRDNAKNTLYLQMNSLKPEDTAVYYCAADRYIWARQGEYWGAYAYDYWGQGTQVTVSS | no binding (tested: log[M] -6.1 (about 8e-7 M)) |  |  |  |  |  | 
4 | DLLBII136C07 (VHH, not shown: small tags and cut ends) VHH: EVQLVESGGGLVQPGGSLRLSCAASGFTFGSYDMSWVRRSPGKGPEWVSSINSGGGSTYYADYVKGRFTISRDNAKNTLYLQMNSLKPEDTAVYYCAADRYIWARQGEYWGAYEYDYWGQGTQVTVSS | no binding (tested: log[M] -6.1 (about 8e-7 M)) |  |  |  |  |  | 
5 | DLLBII133A09 (VHH, not shown: small tags and cut ends) VHH: EVQLVESGGGLVQPGGSLRLSCAASGFTFGSYDMSWVRRSPGKGPEWVSAINSGGGSTYYADYVKGRFTISRDNAKNTLYLQMNSLKPEDTAVYYCAADRYIWARQGEYWGAYAYDYWGQGTQVTVSS | no binding (tested: log[M] -6.1 (about 8e-7 M)) |  |  |  |  |  | 
6 | DLLBII101G08 (VHH, also called 101G8; DLLBII101G8) VHH: EVQLVESGGGLVQAGGSLRLSCAASGRTFSSYAMAWFRQAPGKEREFVAAIRWSGGTAYYADSVQGRFTISRDNAKNTVYLQMNSLKPEDTAVYYCANRAADTRLGPYEYDYWGQGTQVTVSS |  |  |  |  |  |  | EC50 (recombinant human DLL4 [1]): 8.9 nM; Kd (recombinant human DLL4 [2]): 52 nM; koff (recombinant human DLL4 [2]): 0.0022 s⁻¹; kon (recombinant human DLL4 [2]): 43000 M⁻¹ s⁻¹; binding result (human Jagged-1): no binding (tested: 5e-7 M); IC50, DLL4/Notch1 reporter assay [3]: 2760 nM
7 | DLLBII101G08 (VHH, not shown: small tags and cut ends, parent VHH; also called 101G08 (wt); 101G8) VHH: EVQLVESGGGLVQAGGSLRLSCAASGRTFSSYAMAWFRQAPGKEREFVAAIRWSGGTAYYADSVQGRFTISRDNAKNTVYLQMNSLKPEDTAVYYCANRAADTRLGPYEYDYWGQGTQVTVSS |  | no binding (tested: log[M] -6.1 (about 8e-7 M)) | 1 | 0.0022 | 1 | 0.0067 | 
8 | DLLBII129B05 (VHH, not shown: small tags and cut ends) VHH: EVQLVESGGGLVQAGGSLRLSCAASGRTFSSYAMAWYRQAPGKEREYVAAIRWSGGTAYYADSVQGRFTISRDNAKNTVYLQMNSLKPEDTAVYYCANRAPDTRLAPYEYDHWGQGTQVTVSS |  | no binding (tested: log[M] -6.1 (about 8e-7 M)) | 24 | 9.3e-05 | 20 | 0.00034 | EC50 (read off the curve) [6]: ~0.8 nM
9 | DLLBII129E11 (VHH, not shown: small tags and cut ends) VHH: EVQLVESGGGLVQAGGSLRLSCAASGRTFSSYAMAWYRQAPGKEREYVAAIRWSGGTAYYADSVQGRFTISRDNAKNTVYLQMNSLKPEDTAVYYCANRAPDTRLRPYLYDYWGQGTQVTVSS |  | no binding (tested: log[M] -6.1 (about 8e-7 M)) | 28 | 8e-05 | 26 | 0.00025 | EC50 (read off the curve) [6]: ~0.8 nM
10 | DLLBII129D08 (VHH, not shown: small tags and cut ends) VHH: EVQLVESGGGLVQAGGSLRLSCAASGRTFSSYAMAWYRQAPGKEREYVAAIRWSGGTAYYADSVQGRFTISRDNAKNTVYLQMNSLKPEDTAVYYCANRAPDTRLEPYLYDYWGQGTQVTVSS |  | no binding (tested: log[M] -6.1 (about 8e-7 M)) | 38 | 5.9e-05 | 35 | 0.00019 | EC50 (read off the curve) [6]: ~0.8 nM
11 | DLLBII56A09 (VHH, also called 56A9; DLLBII56A9) VHH: EVQLVESGGGLVQPGGSLRLSCAASGFTFDDYAIGWFRQAPGKEPEGISCISSSGGITYYADSVKGRFTTSRDNAKNTVYLQMNSLKPEDTAVYYCATPGIAACRGIHYTGQGTQVTVSS |  |  |  |  |  |  | EC50 (recombinant human DLL4 [1]): 3.6 nM; Kd (recombinant human DLL4 [2]): 5.6 nM; koff (recombinant human DLL4 [2]): 0.00093 s⁻¹; kon (recombinant human DLL4 [2]): 170000 M⁻¹ s⁻¹; binding result (human Jagged-1): no binding (tested: 5e-7 M); IC50, DLL4/Notch1 reporter assay [3]: 540 nM
